Substitutions are numbered along the chain they refer to. One block for each molecule: values may come before it.
Experiments:
[1] = biological target: GST-hPygo2(58-84) (human) (UniProt Q9BRQ0); test: BLI; GST-Pygo2(58-84) wt or mutant loaded on GST biosensors, quenched with free GST; wt or mutant MBP-LDB1-SSBP2 in solution (0.03-30 uM); Octet RED96, 30 °C; KD from steady-state analysis
[2] = biological target: the molecule itself; test: crystal structure; Pygo2(58–84) peptide incubated with LDB1-SSBP2 (co-expressed, co-purified) at 5:1; hanging drop, 100 mM Li2SO4, 100 mM sodium citrate pH 5.6, 1% PEG400, 10 mM DTT, microseeding; 2.45 Å
[3] = biological target: T1, MBP-LDB1(56–285)-SSBP2(1–94) complex, SSBP2 Y72A (human, UniProt Q86U70 56-285; P81877 1-94, Y72A); test: BLI
T1 sequence 1: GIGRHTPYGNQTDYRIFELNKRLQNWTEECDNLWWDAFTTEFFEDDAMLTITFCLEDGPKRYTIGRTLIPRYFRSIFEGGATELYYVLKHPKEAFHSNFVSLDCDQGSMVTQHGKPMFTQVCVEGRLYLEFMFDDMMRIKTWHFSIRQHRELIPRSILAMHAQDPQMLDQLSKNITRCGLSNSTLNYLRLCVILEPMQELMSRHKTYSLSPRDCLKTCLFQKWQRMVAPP
T1 sequence 2: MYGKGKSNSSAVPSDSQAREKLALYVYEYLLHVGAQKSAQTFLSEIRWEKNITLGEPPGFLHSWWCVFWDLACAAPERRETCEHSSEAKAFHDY

[4] = biological target: hBCL9ΔHD3-Pygo2 complex, Avi-tagged, biotinylated (human, UniProt O00512 1-1426; Q9BRQ0 1-406, lacking hBCL9(461–489) fragment, biotin on the Avi tag (BirA)); test: BLI
[5] = biological target: T2, hBCL9ΔHD3-Pygo2 complex, Avi-tagged, biotinylated (human, UniProt O00512 1-1426; Q9BRQ0 1-406, lacking hBCL9(461–489) fragment, biotin on the Avi tag (BirA)); test: BLI; Octet RED96; biotinylated Avi-tagged BCL9-Pygo2 (wt or deletion) on SA biosensors, full-length LDB1-SSBP2 in solution at 1000, 300, 100, 30 nM; 30 °C; 20 mM Tris-HCl pH 8.0, 100 mM NaCl, 10 mM DTT, 10 mg/ml BSA; steady-state analysis; conditions: both partners purified
T2 construct: B-cell lymphoma 9 protein (BCL9), human, full length lacking HD3 (461-489); Pygopus 2 (Pygo2), human, full length; also called hBCL9^△HD3-Pygo2; HD3-deleted BCL9; source: HEK293S GnTI- cells, co-transfected, purified (Flag beads, Superose 6 SEC), biotinylated with BirA; not shown: Avi, C-terminal, kept
T2 sequence (O00512 other isoform, or with tags, fused parts or gaps with the stated changes, chain 1 of 2): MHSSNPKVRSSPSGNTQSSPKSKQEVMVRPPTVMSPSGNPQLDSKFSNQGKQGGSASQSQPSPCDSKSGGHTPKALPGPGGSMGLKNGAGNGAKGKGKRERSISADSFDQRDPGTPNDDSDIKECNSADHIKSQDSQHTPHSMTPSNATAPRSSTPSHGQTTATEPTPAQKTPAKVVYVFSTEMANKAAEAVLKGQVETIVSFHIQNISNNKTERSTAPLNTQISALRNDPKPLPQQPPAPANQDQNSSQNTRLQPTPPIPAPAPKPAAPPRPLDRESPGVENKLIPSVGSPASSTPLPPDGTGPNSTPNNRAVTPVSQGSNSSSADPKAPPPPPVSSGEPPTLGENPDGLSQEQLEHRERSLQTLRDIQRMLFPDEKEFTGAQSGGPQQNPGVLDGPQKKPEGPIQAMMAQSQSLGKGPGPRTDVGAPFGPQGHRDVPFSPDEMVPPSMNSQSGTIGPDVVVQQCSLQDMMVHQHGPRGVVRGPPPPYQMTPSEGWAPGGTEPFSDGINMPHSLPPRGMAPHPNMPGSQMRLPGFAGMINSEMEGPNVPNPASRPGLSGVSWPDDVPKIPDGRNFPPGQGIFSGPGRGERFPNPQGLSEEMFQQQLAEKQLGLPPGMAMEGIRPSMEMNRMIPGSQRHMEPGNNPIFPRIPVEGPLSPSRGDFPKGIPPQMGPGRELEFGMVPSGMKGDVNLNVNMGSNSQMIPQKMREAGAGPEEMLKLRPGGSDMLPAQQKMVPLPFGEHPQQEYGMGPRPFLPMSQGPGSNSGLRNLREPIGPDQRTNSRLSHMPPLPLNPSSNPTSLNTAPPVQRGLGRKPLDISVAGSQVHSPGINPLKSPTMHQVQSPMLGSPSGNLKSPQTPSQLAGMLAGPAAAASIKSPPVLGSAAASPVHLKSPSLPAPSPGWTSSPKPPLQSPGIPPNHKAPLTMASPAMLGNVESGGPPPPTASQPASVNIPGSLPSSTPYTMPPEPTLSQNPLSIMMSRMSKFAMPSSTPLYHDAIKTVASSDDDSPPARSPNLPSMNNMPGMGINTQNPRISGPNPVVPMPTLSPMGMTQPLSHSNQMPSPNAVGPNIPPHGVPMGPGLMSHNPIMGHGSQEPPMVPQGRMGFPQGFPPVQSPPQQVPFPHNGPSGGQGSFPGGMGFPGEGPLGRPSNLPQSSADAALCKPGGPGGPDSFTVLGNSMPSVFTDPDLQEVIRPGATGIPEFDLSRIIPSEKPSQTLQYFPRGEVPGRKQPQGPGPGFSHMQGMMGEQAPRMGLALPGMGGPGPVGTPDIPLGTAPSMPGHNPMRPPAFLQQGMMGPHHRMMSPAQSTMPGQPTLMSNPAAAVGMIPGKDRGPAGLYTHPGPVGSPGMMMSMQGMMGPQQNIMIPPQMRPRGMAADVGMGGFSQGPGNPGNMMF
T2 sequence (Q9BRQ0 whole entry, stated change not applied, chain 2 of 2, the tested form may be a part): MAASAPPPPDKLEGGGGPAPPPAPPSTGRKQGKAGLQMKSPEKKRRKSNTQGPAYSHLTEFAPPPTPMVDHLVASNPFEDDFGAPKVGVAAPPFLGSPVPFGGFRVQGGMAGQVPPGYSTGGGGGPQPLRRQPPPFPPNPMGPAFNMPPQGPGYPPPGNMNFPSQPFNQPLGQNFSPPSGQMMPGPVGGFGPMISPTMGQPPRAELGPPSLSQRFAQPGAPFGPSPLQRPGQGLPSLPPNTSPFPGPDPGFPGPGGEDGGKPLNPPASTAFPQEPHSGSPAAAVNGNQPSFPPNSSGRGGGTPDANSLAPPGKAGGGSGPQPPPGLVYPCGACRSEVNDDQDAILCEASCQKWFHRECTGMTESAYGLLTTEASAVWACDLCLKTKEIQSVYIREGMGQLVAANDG

[6] = biological target: T3, Avi-tagged wt BCL9-Pygo2 complex, biotinylated (human, UniProt O00512 1-1426; Q9BRQ0 1-406, biotin on the Avi tag (BirA)); test: as above; conditions: both partners purified
T3 construct: B-cell lymphoma 9 protein (BCL9), human, full length; Pygopus 2 (Pygo2), human, full length; also called Biotinylated BCL9-Pygo2; recombinant BCL9-Pygo; source: HEK293S GnTI- cells, co-transfected, purified (Flag beads, Superose 6 SEC), biotinylated with BirA; not shown: Avi, C-terminal, kept
T3 sequence (O00512 whole entry, chain 1 of 2): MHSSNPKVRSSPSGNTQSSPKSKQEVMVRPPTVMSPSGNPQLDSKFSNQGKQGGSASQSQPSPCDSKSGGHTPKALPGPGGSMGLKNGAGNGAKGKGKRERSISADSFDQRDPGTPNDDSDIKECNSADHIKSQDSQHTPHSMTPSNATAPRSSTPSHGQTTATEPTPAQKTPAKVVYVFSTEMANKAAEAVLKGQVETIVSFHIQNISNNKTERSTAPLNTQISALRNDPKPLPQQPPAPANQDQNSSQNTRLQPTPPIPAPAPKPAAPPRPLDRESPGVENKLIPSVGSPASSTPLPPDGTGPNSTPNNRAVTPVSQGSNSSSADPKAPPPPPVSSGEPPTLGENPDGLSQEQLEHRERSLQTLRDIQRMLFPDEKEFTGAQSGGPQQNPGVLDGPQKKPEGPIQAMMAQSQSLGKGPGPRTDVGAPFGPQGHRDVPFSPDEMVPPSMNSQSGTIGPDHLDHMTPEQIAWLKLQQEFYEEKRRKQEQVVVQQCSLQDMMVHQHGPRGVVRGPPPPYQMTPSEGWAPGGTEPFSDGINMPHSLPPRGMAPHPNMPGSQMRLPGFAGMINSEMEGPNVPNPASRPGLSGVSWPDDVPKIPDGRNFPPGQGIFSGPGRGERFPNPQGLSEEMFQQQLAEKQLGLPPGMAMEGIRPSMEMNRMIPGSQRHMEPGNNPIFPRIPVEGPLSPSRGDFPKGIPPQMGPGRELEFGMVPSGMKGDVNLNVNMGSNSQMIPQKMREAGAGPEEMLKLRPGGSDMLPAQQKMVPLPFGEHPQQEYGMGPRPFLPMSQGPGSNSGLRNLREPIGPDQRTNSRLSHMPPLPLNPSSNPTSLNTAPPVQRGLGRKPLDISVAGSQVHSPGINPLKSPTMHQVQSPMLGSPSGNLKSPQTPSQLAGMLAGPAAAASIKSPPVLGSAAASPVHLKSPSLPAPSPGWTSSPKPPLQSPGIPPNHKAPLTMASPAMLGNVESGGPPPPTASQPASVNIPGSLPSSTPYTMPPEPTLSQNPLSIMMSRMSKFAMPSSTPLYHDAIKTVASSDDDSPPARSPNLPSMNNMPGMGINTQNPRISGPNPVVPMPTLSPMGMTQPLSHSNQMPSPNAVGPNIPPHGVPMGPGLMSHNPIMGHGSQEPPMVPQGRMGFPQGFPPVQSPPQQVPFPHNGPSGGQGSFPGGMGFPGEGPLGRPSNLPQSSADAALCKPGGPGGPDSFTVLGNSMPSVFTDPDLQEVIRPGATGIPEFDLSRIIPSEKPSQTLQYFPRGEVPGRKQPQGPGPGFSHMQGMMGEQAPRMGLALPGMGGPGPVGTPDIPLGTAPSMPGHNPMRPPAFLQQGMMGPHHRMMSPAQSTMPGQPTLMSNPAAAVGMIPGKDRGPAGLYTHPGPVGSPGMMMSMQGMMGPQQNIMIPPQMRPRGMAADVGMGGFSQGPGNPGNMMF
T3 sequence (Q9BRQ0 whole entry, chain 2 of 2): as the sequence (Q9BRQ0 whole entry, stated change not applied, chain 2 of 2, the tested form may be a part) above

B1: human SSBP2(1–94), tag removed (domain or fragment, UniProt P81877 1-94, looked up)
chain: T1 sequence 2 with A72Y
notes: chain of the crystallised complex; not shown: His, N-terminal, cleaved
- binding result [2]: binds

B2: human LDB1(56–285), tags removed (domain or fragment, UniProt Q86U70 56-285, looked up)
chain: T1 sequence 1
notes: chain of the crystallised complex; source: E. coli BL21 (DE3), co-expressed with SSBP2(1–94), purified (Ni-NTA, TEV cleavage, HiTrap Q, Superdex 200); not shown: His, N-terminal, cleaved; MBP, N-terminal, cleaved
- binding result [2]: binds

B3: GST-Pygo2(58–84) (domain or fragment)
chain: LTEFAPPPTPMVDHLVASNPFEDDFGA
- Kd [3]: 22 µM

Now from value to molecule:

- Kd [1]: 22 µM
Molecule: MBP-LDB1(56-285)-SSBP2(1-94) Y72A complex (from UniProt Q86U70 56-285; P81877 1-94)

- Kd [4]: 0.039 µM
- binding result [5]: binds
- Kd [6]: 0.032 µM
B4: LDB1-SSBP2 complex (full-length human proteins) (complex)
chain 1: MSVGCACPGCSSKSFKLYSPKEPPNGNAFPPFHPGTMLDRDVGPTPMYPPTYLEPGIGRHTPYGNQTDYRIFELNKRLQNWTEECDNLWWDAFTTEFFEDDAMLTITFCLEDGPKRYTIGRTLIPRYFRSIFEGGATELYYVLKHPKEAFHSNFVSLDCDQGSMVTQHGKPMFTQVCVEGRLYLEFMFDDMMRIKTWHFSIRQHRELIPRSILAMHAQDPQMLDQLSKNITRCGLSNSTLNYLRLCVILEPMQELMSRHKTYSLSPRDCLKTCLFQKWQRMVAPPAEPTRQQPSKRRKRKMSGGSTMSSGGGNTNNSNSKKKSPASTFALSSQVPDVMVVGEPTLMGGEFGDEDERLITRLENTQFDAANGIDDEDSFNNSPALGANSPWNSKPPSSQESKSENPTSQASQ
chain 2: MYGKGKSNSSAVPSDSQAREKLALYVYEYLLHVGAQKSAQTFLSEIRWEKNITLGEPPGFLHSWWCVFWDLYCAAPERRETCEHSSEAKAFHDYSAAAAPSPVLGNIPPGDGMPVGPVPPGFFQPFMSPRYPGGPRPPLRIPNQALGGVPGSQPLLPSGMDPTRQQGHPNMGGPMQRMTPPRGMVPLGPQNYGGAMRPPLNALGGPGMPGMNMGPGGGRPWPNPTNANSIPYSSASPGNYVGPPGGGGPPGTPIMPSPADSTNSGDNMYTLMNAVPPGPNRPNFPMGPGSDGPMGGLGGMESHHMNGSLGSGDMDSISKNSPNNMSLSNQPGTPRDDGEMGGNFLNPFQSESYSPSMTMSV
notes: the discussion speaks of a 2:4 (LDB1:SSBP2) stoichiometry of the LDB1-SSBP2 core complex; not measured for the full-length complex; also called ChiLS; full-length LDB1-SSBP2 complex; source: HEK293S GnTI- cells, co-transfected, purified (Flag beads, Superose 6 SEC)

Reference: paper PMC10287724, “Structural basis of the interaction between BCL9-Pygo and LDB-SSBP complexes in assembling the Wnt enhanceosome” (Nature Communications, 2023)
